Common to all, as to assay: cell-based or functional assay
The target in experiment [1] is T1, human glucose-dependent insulinotropic polypeptide receptor (human, UniProt P48546 22-466).
T1 sequence (looked up): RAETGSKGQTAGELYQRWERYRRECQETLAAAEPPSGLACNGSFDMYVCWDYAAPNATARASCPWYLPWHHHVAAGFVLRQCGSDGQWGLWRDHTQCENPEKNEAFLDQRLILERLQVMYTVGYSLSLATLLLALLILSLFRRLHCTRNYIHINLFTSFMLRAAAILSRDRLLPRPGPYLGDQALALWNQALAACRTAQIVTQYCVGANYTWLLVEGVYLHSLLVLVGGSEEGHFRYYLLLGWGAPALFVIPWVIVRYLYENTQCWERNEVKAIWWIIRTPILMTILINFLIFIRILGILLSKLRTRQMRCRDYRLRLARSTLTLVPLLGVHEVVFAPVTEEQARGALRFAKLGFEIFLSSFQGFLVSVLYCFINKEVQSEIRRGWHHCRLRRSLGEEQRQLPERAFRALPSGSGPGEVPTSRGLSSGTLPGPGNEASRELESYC

Experiment [2] has as its target T2, human glucagon-like peptide-2 receptor (human, UniProt O95838 1-553).
T2 sequence (looked up): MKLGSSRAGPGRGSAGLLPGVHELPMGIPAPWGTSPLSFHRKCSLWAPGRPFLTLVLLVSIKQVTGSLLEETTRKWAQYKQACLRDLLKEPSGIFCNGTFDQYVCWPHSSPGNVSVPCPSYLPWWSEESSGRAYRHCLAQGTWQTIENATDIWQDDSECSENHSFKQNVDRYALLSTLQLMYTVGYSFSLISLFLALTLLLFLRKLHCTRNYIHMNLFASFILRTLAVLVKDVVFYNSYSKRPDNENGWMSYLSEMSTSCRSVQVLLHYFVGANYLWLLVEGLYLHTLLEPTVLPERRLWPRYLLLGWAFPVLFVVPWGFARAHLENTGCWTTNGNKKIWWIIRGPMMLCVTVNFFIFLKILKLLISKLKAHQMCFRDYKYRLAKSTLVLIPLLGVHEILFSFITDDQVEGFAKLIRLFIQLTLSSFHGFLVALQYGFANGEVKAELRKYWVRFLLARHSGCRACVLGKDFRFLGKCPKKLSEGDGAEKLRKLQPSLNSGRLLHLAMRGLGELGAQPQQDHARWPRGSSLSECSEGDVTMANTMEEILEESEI

For experiment [3], the target named is human GLP-1R (GLP-1 receptor) (human, UniProt P43220 24-463).

This is an account of results in patent publication US20250304643A1 (BAINAN BIOTECH, published 2025).

Where no end group is shown, it is not given here. [ ]: non-standard residue; d: D form. The star is where a group is joined. C16 diacid = O=C(O)CCCCCCCCCCCCCCC(=O)*; Palmitoyl = CCCCCCCCCCCCCCCC(=O)*; Decanoyl = CCCCCCCCCC(=O)*; Aib = CC(C)(N)C(=O)O

B1: Compound no. 44 (peptide)
peptide: Decanoyl-H[Aib]DGTFISDYST[Aib]LDNLAARDFINWLIQTKITK-OH
SMILES: CCCCCCCCCC(=O)N[C@@H](Cc1c[nH]cn1)C(=O)NC(C)(C)C(=O)N[C@@H](CC(=O)O)C(=O)NCC(=O)N[C@H](C(=O)N[C@@H](Cc1ccccc1)C(=O)N[C@H](C(=O)N[C@@H](CO)C(=O)N[C@@H](CC(=O)O)C(=O)N[C@@H](Cc1ccc(O)cc1)C(=O)N[C@@H](CO)C(=O)N[C@H](C(=O)NC(C)(C)C(=O)N[C@@H](CC(C)C)C(=O)N[C@@H](CC(=O)O)C(=O)N[C@@H](CC(N)=O)C(=O)N[C@@H](CC(C)C)C(=O)N[C@@H](C)C(=O)N[C@@H](C)C(=O)N[C@@H](CCCNC(=N)N)C(=O)N[C@@H](CC(=O)O)C(=O)N[C@@H](Cc1ccccc1)C(=O)N[C@H](C(=O)N[C@@H](CC(N)=O)C(=O)N[C@@H](Cc1c[nH]c2ccccc12)C(=O)N[C@@H](CC(C)C)C(=O)N[C@H](C(=O)N[C@@H](CCC(N)=O)C(=O)N[C@H](C(=O)N[C@@H](CCCCN)C(=O)N[C@H](C(=O)N[C@H](C(=O)N[C@@H](CCCCN)C(=O)O)[C@@H](C)O)[C@@H](C)CC)[C@@H](C)O)[C@@H](C)CC)[C@@H](C)CC)[C@@H](C)O)[C@@H](C)CC)[C@@H](C)O
Take B1: the “Efficacy GIPR” value in experiment [1] stood at 110%. Moreover, the “Efficacy GLP-2R” value in experiment [2] amounted to 100%.

Regarding Palmitoyl-HADGTFISDYSTILDNLAARDFINWLIQTKIT [Compound no. 2], the “Efficacy GIPR” value in experiment [1] was 80%. Also, in experiment [2], the “Efficacy GLP-2R” value was 59%.

B2: Compound no. 8 (peptide)
peptide: Palmitoyl-H[Aib]DGTFISDYSTILDNLAARDFIEWLIQTKIT-OH
SMILES: CCCCCCCCCCCCCCCC(=O)N[C@@H](Cc1c[nH]cn1)C(=O)NC(C)(C)C(=O)N[C@@H](CC(=O)O)C(=O)NCC(=O)N[C@H](C(=O)N[C@@H](Cc1ccccc1)C(=O)N[C@H](C(=O)N[C@@H](CO)C(=O)N[C@@H](CC(=O)O)C(=O)N[C@@H](Cc1ccc(O)cc1)C(=O)N[C@@H](CO)C(=O)N[C@H](C(=O)N[C@H](C(=O)N[C@@H](CC(C)C)C(=O)N[C@@H](CC(=O)O)C(=O)N[C@@H](CC(N)=O)C(=O)N[C@@H](CC(C)C)C(=O)N[C@@H](C)C(=O)N[C@@H](C)C(=O)N[C@@H](CCCNC(=N)N)C(=O)N[C@@H](CC(=O)O)C(=O)N[C@@H](Cc1ccccc1)C(=O)N[C@H](C(=O)N[C@@H](CCC(=O)O)C(=O)N[C@@H](Cc1c[nH]c2ccccc12)C(=O)N[C@@H](CC(C)C)C(=O)N[C@H](C(=O)N[C@@H](CCC(N)=O)C(=O)N[C@H](C(=O)N[C@@H](CCCCN)C(=O)N[C@H](C(=O)N[C@H](C(=O)O)[C@@H](C)O)[C@@H](C)CC)[C@@H](C)O)[C@@H](C)CC)[C@@H](C)CC)[C@@H](C)CC)[C@@H](C)O)[C@@H](C)CC)[C@@H](C)O
As to B2, in experiment [3], the “cAMP assay: EC50 (nM) GLP-1R” value worked out at 10 nM, the “cAMP assay: Efficacy GLP-1R” value is 19% and the “cAMP assay: logEC50 GLP-1R” value came out at 8.

Consider {C16 diacid}-H[Aib]DGTFISDYST[Aib]LDNLAAKDFINWLIQTKITKNDWKHNITQ-OH [Compound no. 42], for which the “Efficacy GIPR” value in experiment [1] was 91%. Besides, the “Efficacy GLP-2R” value in experiment [2] was found to be 93%.

B3: Compound no. 5 (peptide)
peptide: Palmitoyl-H[Aib]DGTFISDYST[Aib]LDNLAARDFINWLIQTKITK-OH
SMILES: CCCCCCCCCCCCCCCC(=O)N[C@@H](Cc1c[nH]cn1)C(=O)NC(C)(C)C(=O)N[C@@H](CC(=O)O)C(=O)NCC(=O)N[C@H](C(=O)N[C@@H](Cc1ccccc1)C(=O)N[C@H](C(=O)N[C@@H](CO)C(=O)N[C@@H](CC(=O)O)C(=O)N[C@@H](Cc1ccc(O)cc1)C(=O)N[C@@H](CO)C(=O)N[C@H](C(=O)NC(C)(C)C(=O)N[C@@H](CC(C)C)C(=O)N[C@@H](CC(=O)O)C(=O)N[C@@H](CC(N)=O)C(=O)N[C@@H](CC(C)C)C(=O)N[C@@H](C)C(=O)N[C@@H](C)C(=O)N[C@@H](CCCNC(=N)N)C(=O)N[C@@H](CC(=O)O)C(=O)N[C@@H](Cc1ccccc1)C(=O)N[C@H](C(=O)N[C@@H](CC(N)=O)C(=O)N[C@@H](Cc1c[nH]c2ccccc12)C(=O)N[C@@H](CC(C)C)C(=O)N[C@H](C(=O)N[C@@H](CCC(N)=O)C(=O)N[C@H](C(=O)N[C@@H](CCCCN)C(=O)N[C@H](C(=O)N[C@H](C(=O)N[C@@H](CCCCN)C(=O)O)[C@@H](C)O)[C@@H](C)CC)[C@@H](C)O)[C@@H](C)CC)[C@@H](C)CC)[C@@H](C)O)[C@@H](C)CC)[C@@H](C)O
With B3, the “cAMP assay: Efficacy GLP-1R” value in experiment [3] worked out at 6%.

B4: Compound no. 7 (peptide)
peptide: Palmitoyl-H[Aib]DGTFISDYSTILDNLAARDFIEWLIQTKITK-OH
SMILES: CCCCCCCCCCCCCCCC(=O)N[C@@H](Cc1c[nH]cn1)C(=O)NC(C)(C)C(=O)N[C@@H](CC(=O)O)C(=O)NCC(=O)N[C@H](C(=O)N[C@@H](Cc1ccccc1)C(=O)N[C@H](C(=O)N[C@@H](CO)C(=O)N[C@@H](CC(=O)O)C(=O)N[C@@H](Cc1ccc(O)cc1)C(=O)N[C@@H](CO)C(=O)N[C@H](C(=O)N[C@H](C(=O)N[C@@H](CC(C)C)C(=O)N[C@@H](CC(=O)O)C(=O)N[C@@H](CC(N)=O)C(=O)N[C@@H](CC(C)C)C(=O)N[C@@H](C)C(=O)N[C@@H](C)C(=O)N[C@@H](CCCNC(=N)N)C(=O)N[C@@H](CC(=O)O)C(=O)N[C@@H](Cc1ccccc1)C(=O)N[C@H](C(=O)N[C@@H](CCC(=O)O)C(=O)N[C@@H](Cc1c[nH]c2ccccc12)C(=O)N[C@@H](CC(C)C)C(=O)N[C@H](C(=O)N[C@@H](CCC(N)=O)C(=O)N[C@H](C(=O)N[C@@H](CCCCN)C(=O)N[C@H](C(=O)N[C@H](C(=O)N[C@@H](CCCCN)C(=O)O)[C@@H](C)O)[C@@H](C)CC)[C@@H](C)O)[C@@H](C)CC)[C@@H](C)CC)[C@@H](C)CC)[C@@H](C)O)[C@@H](C)CC)[C@@H](C)O
With B4, in experiment [3], the “cAMP assay: EC50 (nM) GLP-1R” value stood at 39.8 nM, the “cAMP assay: Efficacy GLP-1R” value was 13% and the “cAMP assay: logEC50 GLP-1R” value was 7.4.

Turning to Palmitoyl-HADGTFISDYSTILDNLAARDFINWLLAQKITK [Compound no. 46], in experiment [1], the “Efficacy GIPR” value was 98%. The “Efficacy GLP-2R” value in experiment [2] was found to be 82%.

B5: Compound no. 6 (peptide)
peptide: Palmitoyl-H[Aib]DGTFISDYSTILD[Aib]LAARDFINWLIQTKITK-OH
SMILES: CCCCCCCCCCCCCCCC(=O)N[C@@H](Cc1c[nH]cn1)C(=O)NC(C)(C)C(=O)N[C@@H](CC(=O)O)C(=O)NCC(=O)N[C@H](C(=O)N[C@@H](Cc1ccccc1)C(=O)N[C@H](C(=O)N[C@@H](CO)C(=O)N[C@@H](CC(=O)O)C(=O)N[C@@H](Cc1ccc(O)cc1)C(=O)N[C@@H](CO)C(=O)N[C@H](C(=O)N[C@H](C(=O)N[C@@H](CC(C)C)C(=O)N[C@@H](CC(=O)O)C(=O)NC(C)(C)C(=O)N[C@@H](CC(C)C)C(=O)N[C@@H](C)C(=O)N[C@@H](C)C(=O)N[C@@H](CCCNC(=N)N)C(=O)N[C@@H](CC(=O)O)C(=O)N[C@@H](Cc1ccccc1)C(=O)N[C@H](C(=O)N[C@@H](CC(N)=O)C(=O)N[C@@H](Cc1c[nH]c2ccccc12)C(=O)N[C@@H](CC(C)C)C(=O)N[C@H](C(=O)N[C@@H](CCC(N)=O)C(=O)N[C@H](C(=O)N[C@@H](CCCCN)C(=O)N[C@H](C(=O)N[C@H](C(=O)N[C@@H](CCCCN)C(=O)O)[C@@H](C)O)[C@@H](C)CC)[C@@H](C)O)[C@@H](C)CC)[C@@H](C)CC)[C@@H](C)CC)[C@@H](C)O)[C@@H](C)CC)[C@@H](C)O
Consider B5, for which, in experiment [3], the “cAMP assay: EC50 (nM) GLP-1R” value was 39.8 nM, the “cAMP assay: Efficacy GLP-1R” value is 34% and the “cAMP assay: logEC50 GLP-1R” value was 7.4.
